According to PMC4208696:

How the values were obtained:
[1] = molecular target: Fl–hRyR1(1975–1999)p: hRyR1(1975–1999)p with a 5,6-carboxyfluorescein moiety at the N-terminus (human); assay: fluorescence polarisation
[2] = molecular target: Fl–hRyR1(1975–1999)p: hRyR1(1975–1999)p with a 5,6-carboxyfluorescein moiety at the N-terminus (human)
[3] = molecular target: Fl–hRyR1(3614–3643)p: hRyR1(3614–3643)p with a 5,6-carboxyfluorescein moiety at the N-terminus (human)
Sequence of Fl–hRyR1(3614–3643)p: hRyR1(3614–3643)p with a 5,6-carboxyfluorescein moiety at the N-terminus (human) (P21817 3614-3643): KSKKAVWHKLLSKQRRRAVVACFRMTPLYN

Sequence of Fl–hRyR1(1975–1999)p: hRyR1(1975–1999)p with a 5,6-carboxyfluorescein moiety at the N-terminus (human) (P21817 1975-1999): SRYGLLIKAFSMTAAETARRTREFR

saturation at ~100 μM CaM [1]: > 85%
stoichiometry N [2]: 1
stoichiometry N [3]: 1
Substance: full-length mammalian calmodulin (CaM_(1–148)) (from UniProt P0DP23 1-149) (natural protein)
